Data: US20260055191A1

Biological target: purified total human IgA (human) (UniProt P11912)
Test: cell-based or functional assay

UniProt P11912, sequence (P11912 whole entry): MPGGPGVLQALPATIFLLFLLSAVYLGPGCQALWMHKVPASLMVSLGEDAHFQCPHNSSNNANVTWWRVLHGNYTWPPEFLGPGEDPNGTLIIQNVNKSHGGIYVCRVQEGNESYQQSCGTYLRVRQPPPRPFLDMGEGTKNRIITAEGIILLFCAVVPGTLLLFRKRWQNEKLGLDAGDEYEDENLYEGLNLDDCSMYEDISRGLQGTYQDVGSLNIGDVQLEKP

percent of human IgA target remaining in rat serum (total free+bound human IgA by ELISA) 6 hours after subcutaneous administration of 2.0 mg: < 5%
B1: sCD89 glycoengineered polypeptide (receptor)
chain: QEGDFPMPFISAKSSPVIPLDGSVKIQCQAIREAYLTQLMIIKNSTYREIGRRLKFWNETDPEFVIDHMDANKAGRYQCQYRIGHYRFRYSDTLELVVTGLYGKPFLSADRGLVLMPGEQISLTCSSAHIPFDRFSLAKEGELSLPQHQSGEHPAQFSLGPVDLQVSGIYRCYGWYQRSPYLWSFPSNALELVVTGGGGANSTAPAPAPAHHHHHHHHHH
modifications: A2GalNAc2 N-glycans (82.8% A2GalNAc2) at three N-glycosylation sites: native N65 and N79 (numbering according to Uniprot P24071) and the site in the C-terminal glycotag; >95% all occupied
